Results taken from US20180305699A1 (UNIVERSITY OF CHICAGO, published 2018).

Assays:
[1] = molecular target: T1, glutamyl-tRNA synthetase (Gus1) (S. cerevisiae, UniProt P46655 1-708); test: co-elution on Superdex200 gel filtration, western blot of fractions (AME complex of Arc1, Mes1 and Gus1)
T1 construct: Component of the purified AME complex; also called YGL245W
T1 sequence: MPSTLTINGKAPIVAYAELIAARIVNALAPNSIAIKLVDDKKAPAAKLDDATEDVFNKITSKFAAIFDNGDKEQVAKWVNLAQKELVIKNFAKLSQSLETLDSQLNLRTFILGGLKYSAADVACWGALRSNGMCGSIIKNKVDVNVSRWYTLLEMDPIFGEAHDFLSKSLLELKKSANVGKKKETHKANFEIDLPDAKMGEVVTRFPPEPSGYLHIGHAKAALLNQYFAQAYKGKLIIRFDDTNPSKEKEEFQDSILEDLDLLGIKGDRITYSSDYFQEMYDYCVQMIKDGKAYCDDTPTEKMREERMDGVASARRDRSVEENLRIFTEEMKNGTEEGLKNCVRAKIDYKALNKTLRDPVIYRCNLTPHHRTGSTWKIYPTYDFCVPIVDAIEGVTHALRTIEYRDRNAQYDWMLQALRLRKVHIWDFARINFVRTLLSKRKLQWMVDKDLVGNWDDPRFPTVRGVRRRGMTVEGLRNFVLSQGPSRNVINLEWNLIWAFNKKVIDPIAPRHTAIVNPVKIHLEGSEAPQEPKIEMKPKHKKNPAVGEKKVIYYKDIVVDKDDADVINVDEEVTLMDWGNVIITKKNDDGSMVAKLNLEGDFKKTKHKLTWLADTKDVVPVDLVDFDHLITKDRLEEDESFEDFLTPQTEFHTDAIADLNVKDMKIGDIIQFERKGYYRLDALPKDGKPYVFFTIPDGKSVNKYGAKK
From the text: (§1) Shown on the left panel is the elution profile from Superdex200 gel filtration column.

[2] = molecular target: T2, methionyl-tRNA synthetase (Mes1) (S. cerevisiae, UniProt P00958 2-751, limits assumed); test: as above
T2 construct: Component of the purified AME complex; also called YGR264C
T2 sequence: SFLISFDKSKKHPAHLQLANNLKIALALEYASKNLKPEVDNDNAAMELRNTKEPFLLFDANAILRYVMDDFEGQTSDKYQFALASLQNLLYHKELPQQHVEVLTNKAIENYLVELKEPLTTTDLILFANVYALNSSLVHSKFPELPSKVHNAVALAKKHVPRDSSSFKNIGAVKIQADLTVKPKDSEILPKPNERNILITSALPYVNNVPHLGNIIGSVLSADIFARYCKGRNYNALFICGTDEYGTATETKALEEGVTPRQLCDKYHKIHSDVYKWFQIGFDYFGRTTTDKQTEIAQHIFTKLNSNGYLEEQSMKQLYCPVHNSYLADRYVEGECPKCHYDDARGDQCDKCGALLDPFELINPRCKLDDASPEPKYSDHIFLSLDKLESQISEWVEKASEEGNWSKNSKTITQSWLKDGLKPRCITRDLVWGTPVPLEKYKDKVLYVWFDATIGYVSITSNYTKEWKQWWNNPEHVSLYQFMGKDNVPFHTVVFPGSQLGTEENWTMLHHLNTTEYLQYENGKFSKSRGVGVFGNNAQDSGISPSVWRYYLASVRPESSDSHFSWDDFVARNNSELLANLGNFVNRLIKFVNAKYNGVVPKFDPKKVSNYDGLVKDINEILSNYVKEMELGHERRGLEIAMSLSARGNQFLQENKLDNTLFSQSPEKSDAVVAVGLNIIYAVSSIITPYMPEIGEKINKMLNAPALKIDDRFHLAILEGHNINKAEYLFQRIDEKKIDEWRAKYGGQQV
From the text: as §1

- binding result [1]: binds
- binding result [2]: binds
B1: aminoacylation cofactor (Arc1) (other)
chain: MSDLVTKFESLIISKYPVSFTKEQSAQAAQWESVLKSGQIQPHLDQLNLVLRDNTFIVSTLYPTSTDVHVFEVALPLIKDLVASSKDVKSTYTTYRHILRWIDYMQNLLEVSSTDKLEINHDLDLPHEVIEKKKKAPAGGAADAAAKADEDVSKKAKKQDHPRGKPDEETLKKLREEAKAKKAAKKAANAKQQQEQQNKAPEKPKPSAIDFRVGFIQKAIKHPDADSLYVSTIDVGDEEGPRTVCSGLVKHFPLDAMQERYVVVVCNLKPVNMRGIKSTAMVLCGSNDDKVEFVEPPKDSKAGDKVFFEGFGDEAPMKQLNPKKKIWEHLQPHFTTNDGLEVIFKDEEEKDHPVRKLTNAKGESFKVASIANAQVR
notes: Component of the purified AME complex; also called YGL105W
